From IntAct's records for PubMed 11956200

B1: Mitochondrial import inner membrane translocase subunit Tim8 A (Homo sapiens), O60220 (parent)
chain: MDSSSSSSAAGLGAVDPQLQHFIEVETQKQRFQQLVHQMTELCWEKCMDKPGPKLDSRAEACFVNCVERFIDTSQFILNRLEQTQKSKPVFSESLSD
partner: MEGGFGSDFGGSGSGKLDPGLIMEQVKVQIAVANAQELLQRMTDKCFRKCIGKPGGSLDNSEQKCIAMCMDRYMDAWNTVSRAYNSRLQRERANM

Variants of: B1
Details: with tim13_human TIMM13, Q9Y5L4

effect of a mutation on the interaction | Variant
disrupting interaction strength | MDSSSSSSAAGLGAVDPQLQHFIEVETQKQRFQQLVHQMTELCWEKCMDKPGPKLDSRAEACFVNWVERFIDTSQFILNRLEQTQKSKPVFSESLSD
